{
  "source": "paper PMC3352945",
  "about": "(The Journal of Cell Biology, 2012)",
  "binders": {"B1": {"name": "tOE17 V-20F precursor protein (natural protein)", "chain": "MASAEGDAVAQAGRRAFIGLVATGIVGGALSQAARAETVKTIKIGAPPPPSGGLPGTLNSDQARDFDLPLKERFYLQPLPPAEAAARVKTSAQDIINLKPLIDKKAWPYVQNDLRLRASYLRYDLKTVIASKPKEEKKSLKELTGKLFSTIDDLDHAAKIKSTPEAEKYFAATKDALGDVLAKLG", "modifications": "[3H]-Leu radiolabel (unlabeled tOE17 used as the chase in the dissociation test)"}},
  "key": {"cpTatC [1]": {"molecular_target": "T1, cpTatC (pea (endogenous in pea thylakoids))", "assay": "co-IP"}, "cpTatC [2]": {"molecular_target": "T1, cpTatC", "assay": "radioligand binding"}},
  "data": [
    {"binder": "B1", "values": [
      {"measurement": "stoichiometry N", "setting": "cpTatC [1]", "result": 0.79, "unit": "tOE17 per cpTatC"},
      {"measurement": "Kd", "setting": "cpTatC [2]", "result": 1.07, "unit": "nM"},
      {"measurement": "stoichiometry N", "setting": "cpTatC [2]", "result": 1.27, "unit": "tOE17 per cpTatC"}
    ]}
  ]
}
